The values below come from US20070287170A1 (Merck KGaA, published 2007).

Sequences and labels used below:
B4: DI-KS(AG(f0) SEED)-IL-2 heavy chain with DI-KS light chain (antibody)
heavy: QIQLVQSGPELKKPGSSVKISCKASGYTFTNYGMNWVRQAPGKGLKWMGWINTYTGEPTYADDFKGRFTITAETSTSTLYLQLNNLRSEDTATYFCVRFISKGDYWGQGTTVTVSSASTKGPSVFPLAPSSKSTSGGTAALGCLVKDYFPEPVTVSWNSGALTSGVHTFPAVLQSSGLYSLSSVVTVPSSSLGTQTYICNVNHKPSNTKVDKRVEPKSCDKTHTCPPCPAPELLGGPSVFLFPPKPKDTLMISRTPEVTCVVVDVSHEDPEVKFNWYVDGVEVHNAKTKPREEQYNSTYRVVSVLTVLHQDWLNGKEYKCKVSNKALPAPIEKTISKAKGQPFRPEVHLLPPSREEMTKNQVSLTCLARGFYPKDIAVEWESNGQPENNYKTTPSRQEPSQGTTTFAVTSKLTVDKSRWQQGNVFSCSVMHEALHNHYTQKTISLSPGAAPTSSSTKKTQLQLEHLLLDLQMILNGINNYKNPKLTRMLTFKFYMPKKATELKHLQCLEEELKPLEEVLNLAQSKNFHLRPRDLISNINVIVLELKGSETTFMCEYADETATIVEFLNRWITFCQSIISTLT
light: QIVLTQSPASLAVSPGQRATITCSASSSVSYILWYQQKPGQPPKPWIFDTSNLASGFPSRFSGSGSGTSYTLTINSLEAEDAATYYCHQRSGYPYTFGGGTKVEIKRTVAAPSVFIFPPSDEQLKSGTASVVCLLNNFYPREAKVQWKVDNALQSGNSQESVTEQDSKDSTYSLSSTLTLSKADYEKHKVYACEVTHQGLSSPVTKSFNRGEC
notes: also called heavy chain-IL2

Data set [1] concerns the molecule itself. The data set can be described thus: co-expression with Fc(AG(f0) SEED)-IL2 in NS/0 cells, non-reducing SDS-PAGE (homodimer).
The target in another data set is T1, Fc(AG(f0) SEED)-IL2.
T1 construct: also called "Full" AG SEED-IL-2; Fc(AG SEED)-IL2
The data set can be described thus: co-expression in NS/0 cells, SDS-PAGE (figure legend).

The next data set addresses T2, Fc(AG(s0) SEED)-IL2 (human).
T2 construct: It was put together from the cloning scheme (Ngo MIV/Sma I fragment exchange in the pdCs Fc-IL2 vector); also called "Surface" AG SEED-IL-2; AG SURF
The data set is described as above.

Data set [2] concerns the molecule itself. Description: co-expression with Fc(AG(s0) SEED)-IL2 in NS/0 cells, non-reducing SDS-PAGE (homodimer).
The target of data set [3] is B4. Description: co-expression in mammalian cells, non-reducing SDS-PAGE (heterodimer).
Data set [4] concerns the molecule itself. Description: co-expression in mammalian cells, non-reducing SDS-PAGE (homodimer).
Data set [5] deals with the molecule itself. Description: co-expression of both heavy chains and the light chain in mammalian cells, non-reducing SDS-PAGE.

B1: Fc(GA(f0) SEED) (designed binder)
chain: EPKSSDKTHTCPPCPAPELLGGPSVFLFPPKPKDTLMISRTPEVTCVVVDVSHEDPEVKFNWYVDGVEVHNAKTKPREEQYNSTYRVVSVLTVLHQDWLNGKEYKCKVSNKALPAPIEKTISKAKGQPREPQVYTLPPPSEELALNELVTLTCLVKGFYPSDIAVEWLQGSQELPREKYLTWAPVLDSDGSFFLYSILRVAAEDWKKGDTFSCSVMHEALHNHYTQKSLDRSPGK
notes: also called "Full" GA SEED; Fc(GA SEED)
As for B1, the binding result (in data set [1]; with Fc(AG(f0) SEED)-IL2) was “binds” in each case.

B2: Fc(GA(s0) SEED) (designed binder)
chain: EPKSSDKTHTCPPCPAPELLGGPSVFLFPPKPKDTLMISRTPEVTCVVVDVSHEDPEVKFNWYVDGVEVHNAKTKPREEQYNSTYRVVSVLTVLHQDWLNGKEYKCKVSNKALPAPIEKTISKAKGQPREPQVYTLPPPSEELALNNQVTLTCLVKGFYPSDIAVEWESNGQPEPREKYLTWAPVLDSDGSFFLYSILRVDASRWQQGNVFSCSVMHEALHNHYTQKSLSLSPGK
notes: It was put together from the cloning scheme: the Ngo MIV/Sma I fragment for the SEED replaces that of CH3 in the pdCs Fc vector; also called "Surface" GA SEED; GA SURF
For B2, the binding result (in the data set with Fc(AG(s0) SEED)-IL2; in data set [2]) was “binds” each time.

B3: DI-KS(GA(f0) SEED) heavy chain with DI-KS light chain (antibody)
heavy: QIQLVQSGPELKKPGSSVKISCKASGYTFTNYGMNWVRQAPGKGLKWMGWINTYTGEPTYADDFKGRFTITAETSTSTLYLQLNNLRSEDTATYFCVRFISKGDYWGQGTTVTVSSASTKGPSVFPLAPSSKSTSGGTAALGCLVKDYFPEPVTVSWNSGALTSGVHTFPAVLQSSGLYSLSSVVTVPSSSLGTQTYICNVNHKPSNTKVDKRVEPKSCDKTHTCPPCPAPELLGGPSVFLFPPKPKDTLMISRTPEVTCVVVDVSHEDPEVKFNWYVDGVEVHNAKTKPREEQYNSTYRVVSVLTVLHQDWLNGKEYKCKVSNKALPAPIEKTISKAKGQPREPQVYTLPPPSEELALNELVTLTCLVKGFYPSDIAVEWLQGSQELPREKYLTWAPVLDSDGSFFLYSILRVAAEDWKKGDTFSCSVMHEALHNHYTQKSLDRSPGK
light: QIVLTQSPASLAVSPGQRATITCSASSSVSYILWYQQKPGQPPKPWIFDTSNLASGFPSRFSGSGSGTSYTLTINSLEAEDAATYYCHQRSGYPYTFGGGTKVEIKRTVAAPSVFIFPPSDEQLKSGTASVVCLLNNFYPREAKVQWKVDNALQSGNSQESVTEQDSKDSTYSLSSTLTLSKADYEKHKVYACEVTHQGLSSPVTKSFNRGEC
notes: It has anti-EpCAM V regions, human IgG1 CH1 and CH2, and human Ckappa; also called antibody heavy chain (no IL-2)
Consider B3, for which the binding result in data set [3] and in data set [4] was “binds” throughout.
Turning to B4, the binding result in data set [5] is on record as “no binding”.
